{"source": "paper PMC6910828", "about": "(2019)", "key": {"[1]": {"target": "Cy3-labelled, prenylated Cdc42, wild type, GDP-bound (Cy3 at the N-terminus (Cy3 N-t labeled LPETGG peptide joined by sortase); geranylgeranyl by in vitro prenylation (C-terminal prenyl moiety); GDP-bound)", "sequence (P60953 whole entry)": "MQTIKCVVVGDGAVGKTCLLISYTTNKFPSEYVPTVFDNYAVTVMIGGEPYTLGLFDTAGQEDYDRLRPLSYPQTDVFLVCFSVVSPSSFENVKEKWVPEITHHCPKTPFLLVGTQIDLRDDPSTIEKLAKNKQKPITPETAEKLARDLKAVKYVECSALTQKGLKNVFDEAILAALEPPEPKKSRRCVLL", "experiment": "GDP-bound; extraction from supported lipid bilayers"}, "[2]": {"target": "Cy3-labelled, prenylated Rho, wild type, GDP-bound (Cy3 at the N-terminus (Cy3 N-t labeled LPETGG peptide joined by sortase); geranylgeranyl by in vitro prenylation (C-terminal prenyl moiety); GDP-bound)", "sequence (chain, as listed by the source)": "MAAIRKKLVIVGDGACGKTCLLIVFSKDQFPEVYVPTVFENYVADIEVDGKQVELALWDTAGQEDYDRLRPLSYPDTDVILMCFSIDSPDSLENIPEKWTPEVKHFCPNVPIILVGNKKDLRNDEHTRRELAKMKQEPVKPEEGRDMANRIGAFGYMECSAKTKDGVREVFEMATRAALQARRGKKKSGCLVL", "experiment": "GDP-bound; extraction from supported lipid bilayers"}, "[3]": {"target": "Cy3-labelled, prenylated Cdc42 G12V, GTPγS-bound (Cy3 at the N-terminus (Cy3 N-t labeled LPETGG peptide joined by sortase); geranylgeranyl by in vitro prenylation (C-terminal prenyl moiety); GTPγS-bound)", "sequence (chain, as listed by the source G12V)": "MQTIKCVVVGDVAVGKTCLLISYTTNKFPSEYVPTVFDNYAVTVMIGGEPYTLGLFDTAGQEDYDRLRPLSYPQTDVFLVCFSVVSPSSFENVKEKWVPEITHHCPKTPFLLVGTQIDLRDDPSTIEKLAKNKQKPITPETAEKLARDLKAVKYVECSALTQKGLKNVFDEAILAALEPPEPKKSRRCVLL", "experiment": "GTPγS-bound; extraction from supported lipid bilayers"}, "[4]": {"target": "Cy3-labelled, prenylated Rho G14V, GTPγS-bound (Cy3 at the N-terminus (Cy3 N-t labeled LPETGG peptide joined by sortase); geranylgeranyl by in vitro prenylation (C-terminal prenyl moiety); GTPγS-bound)", "sequence (chain, as listed by the source G14V)": "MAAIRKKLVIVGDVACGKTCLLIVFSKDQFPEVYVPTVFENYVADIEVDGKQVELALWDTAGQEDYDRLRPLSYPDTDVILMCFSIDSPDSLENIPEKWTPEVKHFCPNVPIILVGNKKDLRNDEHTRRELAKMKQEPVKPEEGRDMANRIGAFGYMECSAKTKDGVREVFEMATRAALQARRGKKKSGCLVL", "experiment": "GTPγS-bound; extraction from supported lipid bilayers"}, "[5]": {"target": "Cy3-labelled, prenylated Rho Q63L, GTP-bound (Cy3 at the N-terminus (Cy3 N-t labeled LPETGG peptide joined by sortase); geranylgeranyl by in vitro prenylation (C-terminal prenyl moiety); GTP-bound)", "sequence (chain, as listed by the source Q63L)": "as the sequence (chain, as listed by the source G14V) above, with V14G, Q63L counted along it", "experiment": "GTP-bound; extraction from supported lipid bilayers"}, "[6]": {"target": "Cy3-labelled, prenylated Cdc42 Q61L, GTP-bound (Cy3 at the N-terminus (Cy3 N-t labeled LPETGG peptide joined by sortase); geranylgeranyl by in vitro prenylation (C-terminal prenyl moiety); GTP-bound)", "sequence (chain, as listed by the source Q61L)": "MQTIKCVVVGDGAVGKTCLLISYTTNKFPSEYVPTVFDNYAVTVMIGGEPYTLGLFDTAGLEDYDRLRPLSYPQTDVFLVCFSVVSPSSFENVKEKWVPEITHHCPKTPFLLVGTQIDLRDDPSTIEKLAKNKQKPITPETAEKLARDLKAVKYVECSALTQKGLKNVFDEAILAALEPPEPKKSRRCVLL", "experiment": "GTP-bound; extraction from supported lipid bilayers"}}, "data": [{"binder": "Xenopus laevis RhoGDI, wild type (natural protein) MAEHEPTPEQLHQIAAENQDEEHSVDYKPPAQKSIKEIQELDQDDESLRKYKEALLGSLPSSADPEASNVVVTKLTLLCDCAPGPLELDLTGDLEKFKKQSFTLKEGVEYRIKISFKVNKEIVSGLRYQQQTYRKGVRLDRTRYMVGSYGPRVDEYEFLTPIEEAPNGMLARGCYNIKSLFTDDDKSNHLSWEWNLHIKNDWKS", "values": [{"measurement": "Kd", "setting": "[1]", "value": 3.41, "unit": "µM"}, {"measurement": "Kd", "setting": "[2]", "value": 5.77, "unit": "µM"}, {"measurement": "Kd", "setting": "[3]", "value": 4.95, "unit": "µM"}, {"measurement": "Kd", "setting": "[4]", "value": 5.43, "unit": "µM"}, {"measurement": "Kd", "setting": "[5]", "value": 19.6, "unit": "µM"}, {"measurement": "Kd", "setting": "[6]", "value": 14.4, "unit": "µM"}]}]}
